From patent US10495630B2, “Methods for the determination of compounds or compositions for the treatment of lipofuscin related diseases and compounds or compositions” (KATAIRO GMBH, priority 2014, dated 2019)

Test system: Abca4 (−/−) mice
Assay: A2E concentration in eyes of Abca4 (−/−) mice after intravitreal injection, HPLCMSMS
Format: in vivo
Settings: redox active and chelating protein; intravitreal 2 μl of 20 mg/ml; one week after injection
From the text: […] […] The left eye was not treated and maintained as a control. Untreated eyes of age-matched mice lacking the Abca4 transporter were an additional control.
The concentration in each treated eye was then expressed as a percentage of the average concentration in all untreated eyes in the mice of the same age.
The left eye was not treated and maintained as a control. Untreated eyes of age-matched mice lacking the Abca4 transporter were an additional control.
The left eye was not treated and maintained as a control. Untreated eyes of age-matched mice lacking the Abca4 transporter were an additional control. […] Tryptophan is capable of absorbing and re-radiating light energy, as is riboflavin.
Water solutions were diluted 1:3 with acetonitrile and then sealed in vials for injection. 6 μL of the water acetonitrile solutions were injected onto a 2×50 mm Phenyl derived HPLC column (3 μm) and eluted with a gradient from 20% acetonitrile to 100% acetonitrile over 4 minutes at a flow rate of 500 μL/minute.

B1: Lactoferrin: protein capable of binding iron with high affinity (protein, UniProt P02788 20-710, looked up)
Lactotransferrin: GRRRSVQWCAVSQPEATKCFQWQRNMRKVRGPPVSCIKRDSPIQCIQAIAENRADAVTLDGGFIYEAGLAPYKLRPVAAEVYGTERQPRTHYYAVAVVKKGGSFQLNELQGLKSCHTGLRRTAGWNVPIGTLRPFLNWTGPPEPIEAAVARFFSASCVPGADKGQFPNLCRLCAGTGENKCAFSSQEPYFSYSGAFKCLRDGAGDVAFIRESTVFEDLSDEAERDEYELLCPDNTRKPVDKFKDCHLARVPSHAVVARSVNGKEDAIWNLLRQAQEKFGKDKSPKFQLFGSPSGQKDLLFKDSAIGFSRVPPRIDSGLYLGSGYFTAIQNLRKSEEEVAARRARVVWCAVGEQELRKCNQWSGLSEGSVTCSSASTTEDCIALVLKGEADAMSLDGGYVYTAGKCGLVPVLAENYKSQQSSDPDPNCVDRPVEGYLAVAVVRRSDTSLTWNSVKGKKSCHTAVDRTAGWNIPMGLLFNQTGSCKFDEYFSQSCAPGSDPRSNLCALCIGDEQGENKCVPNSNERYYGYTGAFRCLAENAGDVAFVKDVTVLQNTDGNNNEAWAKDLKLADFALLCLDGKRKPVTEARSCHLAMAPNHAVVSRMDKVERLKQVLLHQQAKFGRNGSDCPDKFCLFQSETKNLLFNDNTECLARLHGKTTYEKYLGPQYVAGITNLKKCSTSPLLEACEFLRK
% of A2E relative to age matched untreated: 63% | Concentration A2E (μM) in the treated eye: 20 µM
